Test results taken from publication PMC3510509, “Binding of two DNA molecules by type II topoisomerases for decatenation”.

Legend:
[1] = molecular target: DNA gyrase holoenzyme (EcGyr) (Escherichia coli, UniProt P0AES4;P0AES6 1-875;1-804); experiment: EMSA; 1.4 mM ATP; one complex; EMSA: 35 mM Tris-HCl pH 7.5, 1 mM spermidine, 25 mM K-glutamate, 90 ug/ml tRNA, 1.4 mM ATP, 50 ug/ml BSA, room temp (25 C), 1 nM DNA; filter binding: same mix o
[2] = molecular target: T1, DNA gyrase holoenzyme (MsGyr) (Mycobacterium smegmatis, UniProt P48354;P0C559 1-842;1-675); experiment: EMSA; 1.4 mM ATP; two complexes; EMSA: 35 mM Tris-HCl pH 7.5, 1 mM spermidine, 25 mM K-glutamate, 90 ug/ml tRNA, 1.4 mM ATP, 50 ug/ml BSA, room temp (25 C), 1 nM DNA; filter binding: same mix on ice; SPR: 33 mM Tris-HCl pH 8.0, 5 mM MgCl2, 3 mM DTT, 25 C; conditions: protein: recombinant, chain copies: 2;2, blunt
ParE = ParE (Escherichia coli, UniProt P20083 1-630); experiment: filter binding; 20 nM protein; most efficient of those tested; EMSA: 35 mM Tris-HCl pH 7.5, 1 mM spermidine, 25 mM K-glutamate, 90 ug/ml tRNA, 1.4 mM ATP, 50 ug/ml BSA, room temp (25 C), 1 nM DNA; filter binding: same mix on ice; SPR: 33 mM Tris-HCl pH 8.0, 5 mM MgCl2, 3 mM DTT, 25 C; conditions: protein: recombinant; label: 32P 5'-end; blunt
[3] = molecular target: Topoisomerase IV holoenzyme (Escherichia coli, UniProt P0AFI2;P20083 1-752;1-630); experiment: EMSA; 5-40 nM; two complexes; EMSA: 35 mM Tris-HCl pH 7.5, 1 mM spermidine, 25 mM K-glutamate, 90 ug/ml tRNA, 1.4 mM ATP, 50 ug/ml BSA, room temp (25 C), 1 nM DNA; filter binding: same mix on ice; SPR: 33 mM Tris-HCl pH 8.0, 5 mM MgCl2, 3 mM DTT, 25 C; conditions: protein: recombinant; chain copies: 2;2; label: 32P 5'-end; blunt
GyrB R321A = GyrB R321A (Mycobacterium smegmatis, UniProt P0C559 1-675, R321A); experiment: EMSA; 200 and 400 nM; complex not seen; EMSA: 35 mM Tris-HCl pH 7.5, 1 mM spermidine, 25 mM K-glutamate, 90 ug/ml tRNA, 1.4 mM ATP, 50 ug/ml BSA, room temp (25 C), 1 nM DNA; filter binding: same mix on ice; SPR: 33 mM Tris-HCl pH 8.0, 5 mM MgCl2, 3 mM DTT, 25 C; conditions: protein: recombinant; label: 32P 5'-end; blunt
GyrB (MsGyrB) = GyrB (MsGyrB) (Mycobacterium smegmatis, UniProt P0C559 1-675); experiment: EMSA; 0.1 and 0.2 uM GyrB; EMSA: 35 mM Tris-HCl pH 7.5, 1 mM spermidine, 25 mM K-glutamate, 90 ug/ml tRNA, 1.4 mM ATP, 50 ug/ml BSA, room temp (25 C), 1 nM DNA; filter binding: same mix on ice; SPR: 33 mM Tris-HCl pH 8.0, 5 mM MgCl2, 3 mM DTT, 25 C; conditions: protein: recombinant; label: 32P 5'-end; blunt
[4] = molecular target: MAEB hybrid gyrase (MsGyrA + EcGyrB) (Mycobacterium smegmatis / Escherichia …, UniProt P48354;P0AES6 1-842;1-804); experiment: EMSA; one complex; EMSA: 35 mM Tris-HCl pH 7.5, 1 mM spermidine, 25 mM K-glutamate, 90 ug/ml tRNA, 1.4 mM ATP, 50 ug/ml BSA, room temp (25 C), 1 nM DNA; filter binding: same mix o
[5] = molecular target: EAMB hybrid gyrase (EcGyrA + MsGyrB) (Escherichia coli / Mycobacterium …, UniProt P0AES4;P0C559 1-875;1-675); experiment: EMSA; two complexes; EMSA: 35 mM Tris-HCl pH 7.5, 1 mM spermidine, 25 mM K-glutamate, 90 ug/ml tRNA, 1.4 mM ATP, 50 ug/ml BSA, room temp (25 C), 1 nM DNA; filter binding: same mix on ice; SPR: 33 mM Tris-HCl pH 8.0, 5 mM MgCl2, 3 mM DTT, 25 C; conditions: protein: recombinant; chain copies: 2;2; label: 32P 5'-end; blunt
[6] = molecular target: T1, DNA gyrase holoenzyme (MsGyr); experiment: pull-down; first DNA, then 240 bp; 200 nM enzyme; EMSA: 35 mM Tris-HCl pH 7.5, 1 mM spermidine, 25 mM K-glutamate, 90 ug/ml tRNA, 1.4 mM ATP, 50 ug/ml BSA, room temp (25 C), 1 nM DNA; filter binding: same mix on ice; SPR: 33 mM Tris-HCl pH 8.0, 5 mM MgCl2, 3 mM DTT, 25 C; conditions: protein: recombinant; chain copies: 2;2; label: biotin on one strand, 32P on complement; blunt
[7] = molecular target: T1, DNA gyrase holoenzyme (MsGyr); experiment: EMSA; 1.4 mM ATP; one complex; EMSA: 35 mM Tris-HCl pH 7.5, 1 mM spermidine, 25 mM K-glutamate, 90 ug/ml tRNA, 1.4 mM ATP, 50 ug/ml BSA, room temp (25 C), 1 nM DNA; filter binding: same mix on ice; SPR: 33 mM Tris-HCl pH 8.0, 5 mM MgCl2, 3 mM DTT, 25 C; conditions: protein: recombinant; chain copies: 2;2; label: 32P 5'-end; blunt

B1: DNA III (143 bp) (dsDNA)
DNA 1: GTAAAACGACGGCCAGTGCCAAGCTTGCATGCCTGCAGGTCGACTCTAGAGGATCCCCGGTTGGACTAAGTCCCCAGGCCCCTTAGCCACCACAACGTGGGTACCGAGCTCGAATTCGTAATCATGGTCATAGCTGTTTCCTG
DNA 2: CAGGAAACAGCTATGACCATGATTACGAATTCGAGCTCGGTACCCACGTTGTGGTGGCTAAGGGGCCTGGGGACTTAGTCCAACCGGGGATCCTCTAGAGTCGACCTGCAGGCATGCAAGCTTGGCACTGGCCGTCGTTTTAC
- binding result [1]: binds
- binding result ([2]; label: 32P 5'-end (forward primer)): binds

B2: DNA II (72 bp) (dsDNA)
DNA 1: ACTCTAGAGGATCCCCGGTTGGACTAAGTCCCCAGGCCCCTTAGCCACCACAACGTGGGTACCGAGCTCGAA
DNA 2: TTCGAGCTCGGTACCCACGTTGTGGTGGCTAAGGGGCCTGGGGACTTAGTCCAACCGGGGATCCTCTAGAGT
- binding result (ParE): binds
- binding result [3]: binds
- binding result [1]: binds
- binding result (GyrB R321A): no binding
- binding result (GyrB (MsGyrB)): binds
- binding result [4]: binds
- binding result ([2]; label: 32P 5'-end): binds
- binding result [5]: binds

B3: biotinylated 72 bp DNA (dsDNA)
DNA 1: ACTCTAGAGGATCCCCGGTTGGACTAAGTCCCCAGGCCCCTTAGCCACCACAACGTGGGTACCGAGCTCGAA
DNA 2: TTCGAGCTCGGTACCCACGTTGTGGTGGCTAAGGGGCCTGGGGACTTAGTCCAACCGGGGATCCTCTAGAGT
- binding result [6]: binds

B4: DNA I (40 bp) (dsDNA)
DNA 1: GGTTGGACTAAGTCCCCAGGCCCCTTAGCCACCACAACGT
DNA 2: ACGTTGTGGTGGCTAAGGGGCCTGGGGACTTAGTCCAACC
- binding result [1]: binds
- binding result [7]: binds
